According to patent US20170355744A1 (published 2017):

Target: T1, Untagged Naglu (human, UniProt P54802 24-743)
T1 construct: also called untagged Naglu protein; alpha-N-acetylglucosaminidase
T1 sequence: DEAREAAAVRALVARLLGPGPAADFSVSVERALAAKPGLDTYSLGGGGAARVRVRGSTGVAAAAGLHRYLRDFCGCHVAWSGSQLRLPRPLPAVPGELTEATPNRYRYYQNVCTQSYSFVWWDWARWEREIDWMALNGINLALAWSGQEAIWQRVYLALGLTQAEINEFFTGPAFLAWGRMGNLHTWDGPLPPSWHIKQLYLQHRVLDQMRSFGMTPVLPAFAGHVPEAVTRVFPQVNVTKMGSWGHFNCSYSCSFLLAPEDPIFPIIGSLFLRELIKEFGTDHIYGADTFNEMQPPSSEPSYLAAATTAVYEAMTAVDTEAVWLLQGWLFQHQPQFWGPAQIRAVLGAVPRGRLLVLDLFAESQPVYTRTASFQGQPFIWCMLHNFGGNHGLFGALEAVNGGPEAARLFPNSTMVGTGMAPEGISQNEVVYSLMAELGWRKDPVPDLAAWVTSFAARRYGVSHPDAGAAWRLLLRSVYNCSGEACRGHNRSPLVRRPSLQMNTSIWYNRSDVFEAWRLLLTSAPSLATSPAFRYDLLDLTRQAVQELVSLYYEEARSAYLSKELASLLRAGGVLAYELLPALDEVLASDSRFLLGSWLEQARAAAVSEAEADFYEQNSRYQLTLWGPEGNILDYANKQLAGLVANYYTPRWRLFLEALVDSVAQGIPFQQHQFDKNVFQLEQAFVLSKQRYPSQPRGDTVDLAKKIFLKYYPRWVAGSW
Assay: IGF2R competitive binding assay (displacement of biotinylated IGF-II from plate-coated IGFIIR domains 10-13)
Procedure: To measure the ability of the Naglu fusion protein constructs to bind to the IGF-II receptor a competitive binding assay is carried out. A fragment of the IGFIIR involved with IGF-II binding (domains 10-13, named protein 1288) is coated onto 96-well plates. Biotinylated IGF-II is incubated with the receptor in the presence of increasing amounts of competitors: either control IGF-II (non-biotinylated), or fusion protein sample (containing an IGF-II-derived GILT epitope tag). Receptor-bound biotinylated IGF-II is detected with streptavidin conjugated to horseradish peroxidase (HRP) and a chemiluminescent HRP substrate. The ability of the fusion protein to inhibit binding of biotinylated IGF-II to the IGFIIR is calculated from inhibition curves and reported as an IC₅₀ value (concentration required to achieve 50% binding inhibition).
For the assay, IGFIIR is coated in a white Reacti-bind plate (Pierce, Cat#437111) at 0.5 μg/well in a volume of 100 μl (69.6 nM/per well) in coating buffer. The plate is sealed and incubated overnight at room temperature. The plate is then washed 3× with wash buffer, blocked with blocking buffer and then washed again 3× with wash buffer (300 μl/well).

B1: fragment of the IGFIIR involved with IGF-II binding (domains 10-13, named protein 1288) (receptor, UniProt P11717 1367-1989, looked up)
chain: TECSFKDGAGNSFDLSSLSRYSDNWEAITGTGDPEHYLINVCKSLAPQAGTEPCPPEAAACLLGGSKPVNLGRVRDGPQWRDGIIVLKYVDGDLCPDGIRKKSTTIRFTCSESQVNSRPMFISAVEDCEYTFAWPTATACPMKSNEHDDCQVTNPSTGHLFDLSSLSGRAGFTAAYSEKGLVYMSICGENENCPPGVGACFGQTRISVGKANKRLRYVDQVLQLVYKDGSPCPSKSGLSYKSVISFVCRPEARPTNRPMLISLDKQTCTLFFSWHTPLACEQATECSVRNGSSIVDLSPLIHRTGGYEAYDESEDDASDTNPDFYINICQPLNPMHGVPCPAGAAVCKVPIDGPPIDIGRVAGPPILNPIANEIYLNFESSTPCLADKHFNYTSLIAFHCKRGVSMGTPKLLRTSECDFVFEWETPVVCPDEVRMDGCTLTDEQLLYSFNLSSLSTSTFKVTRDSRTYSVGVCTFAVGPEQGGCKDGGVCLLSGTKGASFGRLQSMKLDYRHQDEAVVLSYVNGDRCPPETDDGVPCVFPFIFNGKSYEECIIESRAKLWCSTTADYDRDHEWGFCRHSNSYRTSSIIFKCDEDEDIGRPQVFSEVRGCDVTFEWKTKVVCPP
notes: domain: domains 10-13; Coated on the plate at 0.5 ug/well; also called IGF2R
B1: no binding.
